According to patent US20090215081:

Target: T1, FLAG-TCF4, full length human TCF4 expressed from pFLAG-CMV-4, Q9NQB0
T1 chain: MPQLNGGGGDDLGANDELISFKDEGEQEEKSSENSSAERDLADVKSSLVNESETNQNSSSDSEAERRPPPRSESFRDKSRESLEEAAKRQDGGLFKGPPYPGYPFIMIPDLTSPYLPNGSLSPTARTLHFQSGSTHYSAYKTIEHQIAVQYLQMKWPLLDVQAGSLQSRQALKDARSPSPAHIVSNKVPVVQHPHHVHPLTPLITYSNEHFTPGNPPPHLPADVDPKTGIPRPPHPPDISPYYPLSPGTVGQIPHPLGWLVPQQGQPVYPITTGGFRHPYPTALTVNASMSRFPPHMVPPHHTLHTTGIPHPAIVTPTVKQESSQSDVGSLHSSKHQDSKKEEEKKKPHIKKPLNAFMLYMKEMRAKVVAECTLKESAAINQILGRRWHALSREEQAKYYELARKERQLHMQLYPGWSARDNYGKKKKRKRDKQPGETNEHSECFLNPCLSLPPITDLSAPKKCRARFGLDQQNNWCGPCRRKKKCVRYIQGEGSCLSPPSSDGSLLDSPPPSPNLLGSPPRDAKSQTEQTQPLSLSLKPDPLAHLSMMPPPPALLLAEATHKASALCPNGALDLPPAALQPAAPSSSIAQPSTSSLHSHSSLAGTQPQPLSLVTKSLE

B1: HA-TNIK, wild-type human TNIK full length expressed from pCIneo-HA-TNIK (protein)
chain: MASDSPARSLDEIDLSALRDPAGIFELVELVGNGTYGQVYKGRHVKTGQLAAIKVMDVTGDEEEEIKQEINMLKKYSHHRNIATYYGAFIKKNPPGMDDQLWLVMEFCGAGSVTDLIKNTKGNTLKEEWIAYICREILRGLSHLHQHKVIHRDIKGQNVLLTENAEVKLVDFGVSAQLDRTVGRRNTFIGTPYWMAPEVIACDENPDATYDFKSDLWSLGITAIEMAEGAPPLCDMHPMRALFLIPRNPAPRLKSKKWSKKFQSFIESCLVKNHSQRPATEQLMKHPFIRDQPNERQVRIQLKDHIDRTKKKRGEKDETEYEYSGSEEEEEENDSGEPSSILNLPGESTLRRDFLRLQLANKERSEALRRQQLEQQQRENEEHKRQLLAERQKRIEEQKEQRRRLEEQQRREKELRKQQEREQRRHYEEQMRREEERRRAEHEQEYIRRQLEEEQRQLEILQQQLLHEQALLLEYKRKQLEEQRQAERLQRQLKQERDYLVSLQHQRQEQRPVEKKPLYHYKEGMSPSEKPAWAKEVEERSRLNRQSSPAMPHKVANRISDPNLPPRSESFSISGVQPARTPPMLRPVDPQIPHLVAVKSQGPALTASQSVHEQPTKGLSGFQEALNVTSHRVEMPRQNSDPTSENPPLPTRIEKFDRSSWLRQEEDIPPKVPQRTTSISPALARKNSPGNGSALGPRLGSQPIRASNPDLRRTEPILESPLQRTSSGSSSSSSTPSSQPSSQGGSQPGSQAGSSERTRVRANSKSEGSPVLPHEPAKVKPEESRDITRPSRPASYKKAIDEDLTALAKELRELRIEETNRPMKKVTDYSSSSEESESSEEEEEDGESETHDGTVAVSDIPRLIPTGAPGSNEQYNVGMVGTHGLETSHADSFSGSISREGTLMIRETSGEKKRSGHSDSNGFAGHINLPDLVQQSHSPAGTPTEGLGRVSTHSQEMDSGTEYGMGSSTKASFTPFVDPRVYQTSPTDEDEEDEESSAAALFTSELLRQEQAKLNEARKISVVNVNPTNIRPHSDTPEIRKYKKRFNSEILCAALWGVNLLVGTENGLMLLDRSGQGKVYNLINRRRFQQMDVLEGLNVLVTISGKKNKLRVYYLSWLRNRILHNDPEVEKKQGWITVGDLEGCIHYKVVKYERIKFLVIALKNAVEIYAWAPKPYHKFMAFKSFADLQHKPLLVDLTVEEGQRLKVIFGSHTGFHVIDVDSGNSYDIYIPSHIQGNITPHAIVILPKTDGMEMLVCYEDEGVYVNTYGRITKDVVLQWGEMPTSVAYIHSNQIMGWGEKAIEIRSVETGHLDGVFMHKRAQRLKFLCERNDKVFFASVRSGGSSQVFFMTLNRNSMMNW
  serine phosphorylation of TCF4 (immunoprecipitation with anti-TCF4, immunoblot with anti-phospho-serine antibody): the serine phosphorylation band of TCF4 was detected
